Columns and labels:
[1] = target: T1, peptide ELPRGPGESRAGPAARPP (human); assay: peptide epitope scanning
T1 peptide: ELPRGPGESRAGPAARPP

rhERFE1 [2] = target: T2, rhERFE1 (human, UniProt Q4G0M1 29-354); assay: checkerboard sandwich ELISA, capture antibody
T2 construct: The FLAG tag was mostly lost during cell culture; also called recombinant hERFE; recombinant human erythroferrone 1
T2 sequence: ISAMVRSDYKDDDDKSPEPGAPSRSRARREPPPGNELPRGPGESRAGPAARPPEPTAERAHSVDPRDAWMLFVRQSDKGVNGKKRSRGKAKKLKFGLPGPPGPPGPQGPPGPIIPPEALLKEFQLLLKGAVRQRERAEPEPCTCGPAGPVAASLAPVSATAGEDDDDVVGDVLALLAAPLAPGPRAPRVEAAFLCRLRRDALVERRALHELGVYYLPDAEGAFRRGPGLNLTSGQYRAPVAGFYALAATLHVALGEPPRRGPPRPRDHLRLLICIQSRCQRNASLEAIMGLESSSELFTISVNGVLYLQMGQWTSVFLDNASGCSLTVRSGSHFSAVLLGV

human erythroferrone [3] = target: T3, human erythroferrone (human, UniProt Q4G0M1 29-354); assay: sandwich ELISA on human serum, Mab#9 as capture antibody
T3 construct: Native hormone in human serum, detected by the Mab#9 / Mab#42 sandwich ELISA; also called hERFE; serum hERFE
T3 sequence (looked up): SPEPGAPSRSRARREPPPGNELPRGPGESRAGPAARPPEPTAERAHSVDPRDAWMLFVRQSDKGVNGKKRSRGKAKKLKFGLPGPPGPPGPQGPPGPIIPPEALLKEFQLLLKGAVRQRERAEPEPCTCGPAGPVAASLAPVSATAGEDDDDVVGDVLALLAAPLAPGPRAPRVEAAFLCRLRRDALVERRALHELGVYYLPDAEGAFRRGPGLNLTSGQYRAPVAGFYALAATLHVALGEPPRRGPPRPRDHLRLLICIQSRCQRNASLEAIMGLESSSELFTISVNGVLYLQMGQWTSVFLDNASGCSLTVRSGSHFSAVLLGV
Experimental: (§1) 96-well high binding plates (Costar #3590) were coated with Mab#9 diluted to 1 μg/ml in sodium carbonate buffer (50 mM, pH 9.6), overnight at 4° C. Plates were washed 3-times with TB S-T (TBS +0.05% Tween 20) then blocked for 1 hour at room temperature with 200 µl/well Blocking Buffer (BB: PBS,0.2% Na casein, 0.05% Tween 20, 0.1M NaCl). Recombinant hERFE2 standard was first diluted to 1 μg/ml and then serially diluted in BB to 10, 5, 2.5, 1.25, and 0.625 ng/ml. After a 1 hour incubation at 25° C. in a 300 rpm shaker, the plate was washed 4-times with TBS-T, 10 seconds, 25° C., and 300 rpm per wash and incubated 1 hour at 25° C., 300 rpm in shaker with 100 μl/well biotinylated Mab#42 (1 μg/ml in BB). After incubation for 1 hour at 25° C., 300 rpm in shaker, the plate was washed 4-times as before, incubated for 45 minutes with Neutravidin-HRP conjugate (ThermoScientific #31030) 1/5000 (100 μl/well) washed again 3-times as before and developed with 100 μl TMB Substrate System for ELISA (ThermoScientific #34028) at room temperature in the dark for 10 minutes. The reaction was stopped by adding 50 μl of 2N sulfuric acid and the plates were read on a Spectramax 250 (Molecular Devices) at 450 nm.

rhERFE2 = target: T4, rhERFE2 (human, UniProt Q4G0M1 29-354); assay: hybridoma supernatant screening; checkerboard sandwich testing
T4 construct: also called Recombinant hERFE2; recombinant human erythroferrone 2
T4 sequence: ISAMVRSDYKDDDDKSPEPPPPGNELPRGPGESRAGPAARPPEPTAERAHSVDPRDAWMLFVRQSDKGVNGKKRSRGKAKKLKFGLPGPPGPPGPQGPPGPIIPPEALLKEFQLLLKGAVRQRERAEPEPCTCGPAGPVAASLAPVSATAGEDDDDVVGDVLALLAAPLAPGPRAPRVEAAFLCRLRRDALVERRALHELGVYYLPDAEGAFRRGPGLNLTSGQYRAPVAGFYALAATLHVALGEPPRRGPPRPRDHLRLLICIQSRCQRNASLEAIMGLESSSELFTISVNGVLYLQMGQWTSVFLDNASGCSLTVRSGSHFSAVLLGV
Source text: Rabbit hybridomas were generated (custom order fulfilled by Abcam, Burlingame, Calif.) from rabbits immunized by rhERFE1 and boosted by rhERFE2. Hybridoma supernatants were selected for reactivity against rhERFE2. After biotinylation of Mabs (EZ-Link sulfo-NHS-LC-LC-Biotin kit, Thermo Fisher Scientific), optimal pair of unbiotinylated capture Mab and biotinylated detection Mab was chosen by checkerboard testing with rhERFE1 and rhERFE2. The cDNAs encoding the final Mab pair (#9 and #42) were cloned from the hybridomas and used to produce the Mabs recombinantly.

rhERFE1 [4] = target: T2, rhERFE1; assay: checkerboard sandwich ELISA, biotinylated detection antibody
human erythroferrone [5] = target: T3, human erythroferrone; assay: sandwich ELISA on human serum, biotinylated Mab#42 as detection antibody
Experimental: as §1

Measured: binding result

B1: Mab#9 (antibody, V domains shown)
VH: QSVEESGGRLVTPGTPLTLTCTVSGIDLNDNAMRWVRQAPGKGLEWIGVIYIDTSTYYASWAKGRFTISKTSSTTVDLKITSPTTEDTATYFCVREDGYRLGDVWGPGTLVTVSS
VL: ALVMTQTPSSVSAGVGGTVTINCQASQSLYNNNYLSWFQQKPGQPPKLLIYWASTLASGVPSRFSGSGSGTQFTLTISGVACDDAATYYCAGYKSSSNDDFAFGGGTEVVVKG
notes: Rabbit monoclonal from a hybridoma, later made recombinantly; Used unbiotinylated as the capture antibody in the ELISA; also called rabbit monoclonal antibody #9; capture Mab
binds: [1] | rhERFE1 [2] | human erythroferrone [3] | rhERFE2

B2: Mab#42 (antibody, V domains shown)
VH: QSLEESGGRLVTPGGSLTLTCTVSGIDLSSYEMGWVRQAPGKGLEWIGVIGTDGTAVYATWVKGRFTISKTSTTVDLKMTSLTTEDTATYFCARDSSGNSNYRAFDPWGPGTLVTVSS
VL: AYDMTQTPASVEVAVGGTVTIKCQASQSIYSYLSWYQQKPGQPPKLLIYRASTLASGVPSRFKGSGSGTQFTLTISDLECADAATYYCQQGFVISNVLNSFGGGTEVVVKG
notes: Rabbit monoclonal from a hybridoma, later made recombinantly; also called rabbit monoclonal antibody #42; biotinylated detection Mab
binds: rhERFE1 [4] | rhERFE2 | human erythroferrone [5]

— patent publication US20200116741A1 (University of California, published 2020)
